Data from publication PMC10691555.

Experiments:
[1] = molecular target: recombinant Her2, biotinylated (UniProt P04626); assay: SPR
[2] = molecular target: recombinant Her2, biotinylated (UniProt P04626); assay: plate binding titration of dye-labelled affibody
[3] = molecular target: Her2 on SK-BR-3 cells (human (endogenous in SK-BR-3)) (UniProt P04626); assay: flow cytometry on cells

- Kd [1]: 0.115 nM
- Kd [2]: 11 nM
- Kd [3]: 7.12 nM
Substance: Her2-specific affibody ZHer2:2891 conjugated with AlexaFluor 488nm dye (designed binder)
